Experiments:
[1] = target: T1, huPD-L1-His (human PD-L1 with a C-terminal polyhistidine tag) (human, UniProt Q9NZQ7 19-239); test: ELISA, huPD-L1-His coated, detection anti-human IgG Fc-HRP per paragraph 264; the filing does not say that this reagent detects the lipocalin mutein alone
T1 construct: Bought; also called biotinylated huPD-L1-His

[2] = target: T2, huCD137-His (human CD137 with a C-terminal polyhistidine tag) (human, UniProt Q07011 24-186); test: ELISA, huCD137-His coated, detection anti-NGAL-HRP
T2 construct: Bought; also called huCD137-His-Bio
Procedure: (§1) Recombinant huPD-L1-His or cyPD-L1-His (human or cynomolgus PD-L1 with a C-terminal polyhistidine tag, R&D Systems or Sino Biologics) at the concentration of 1 μg/mL in PBS was coated overnight on microtiter plates at 4° C. After washing with PBS-0.05% T (PBS supplemented with 0.05% (v/v) Tween 20), the plates were blocked with 2% BSA (w/v) in PBS-0.1% T (PBS supplemented with 0.1% (v/v) Tween 20) for 1 h at room temperature. […] Bound molecules under study were detected by incubation with 1:5000 diluted anti-human IgG Fc-HRP (Jackson Laboratory) in PBS-0.1% T-2% BSA. After an additional wash step, fluorogenic HRP substrate (QuantaBlu, Thermo) was added to each well and the fluorescence intensity was detected using a fluorescence microplate reader.
(§2) The same ELISA setup was also employed to determine the binding potency of fusion proteins to CD137, where huCD137-His (human CD137 with C-terminal polyhistidine tag, R&D Systems) or cyCD137-Fc (cynomolgus CD137 C-terminally fused to Fc) was instead coated on a microtiter plate. The testing agents were similarly titrated and bound agents were detected via anti-NGAL-HRP.

[3] = target: T3, biotinylated huCD137-Fc (human CD137 Fc fusion) (human, UniProt Q07011 24-186, biotinylated); test: competitive ELISA, antibody SEQ ID NOs: 28 and 29 coated (competitor), 1 nM huCD137-Fc-bio tracer, binder titrated
T3 construct: Bought; also called huCD137-Fc-bio
Procedure: The plates were washed five times after each incubation step with 100 μL PBS-0.05% T (PBS supplemented with 0.05% (v/v) Tween 20). The plates were blocked with 2% BSA (w/v) in PBS-0.1% T (PBS supplemented with 0.1% (v/v) Tween 20) for 1 h at room temperature and subsequently washed again. […] The mixtures of testing molecules and the tracer were added to the plates and incubated for 20 min at room temperature following by five washing steps with 100 μL PBS-0.05% T. Subsequently, a 1:5000 dilution of ExtrAvidin-HRP (Sigma-Aldrich) in PBS-0.1% T-2% BSA was added to the wells and incubated for 1 h. After an additional wash step, fluorogenic HRP substrate (QuantaBlu, Thermo) was added to each well, and the fluorescence intensity was detected using a fluorescence microplate reader.
Competition data for an exemplary experiment are shown in FIG. 14, where the x-axis represents testing molecule concentration and the y-axis represents the measured trace molecule concentration. The data were fit to a 1:1 sigmoidal curve, where the IC₅₀ value and the maximum signal were free parameters, and the slope was fixed to unity.

[4] = target: T2, huCD137-His (human CD137 with a …); test: SPR (Biacore), binder captured by anti-human IgG Fc, huCD137-His in solution, 25 C, 1:1 model
Procedure: (§3) The binding kinetics and affinity of exemplary fusion proteins to huPD-L1-His or huCD137-His (human PD-L1 or human CD137 with a C-terminal polyhistidine tag, R&D Systems) were determined by surface plasmon resonance (SPR) using a Biacore 8K or a Biacore T200 (GE Healthcare).
(§4) The anti-human IgG Fc antibody (GE Healthcare) was immobilized on a CM5 sensor chip using standard amine chemistry: the carboxyl groups on the chip were activated using 1-ethyl-3-(3-dimethylaminopropyl)-carbodiimide (EDC) and N-hydroxysuccinimide (NHS). Subsequently, anti-human IgG Fc antibody solution (GE Healthcare) at a concentration of 25 μg/mL in 10 mM sodium acetate (pH 5.0) was applied at a flow rate of 5 μL/min until an immobilization level of 6000-10000 resonance units (RU) was achieved. Residual non-reacted NHS-esters were blocked by passing a solution of 1M ethanolamine across the surface. The reference channel was treated in an analogous manner. […] After each capture step, the needle was washed.
(§5) Double referencing was used and the 1:1 binding model was used to fit the raw data.

[5] = target: T4, cyPD-L1-His (cynomolgus PD-L1 with a C-terminal polyhistidine tag) (cynomolgus); test: ELISA, cyPD-L1-His coated, detection anti-human IgG Fc-HRP
T4 construct: Bought
Procedure: as §1

[6] = target: T5, human PD-L1 expressed on cells (human, UniProt Q9NZQ7 19-290); test: flow cytometry, RKO tumor cells (PD-L1-positive)
T5 construct: whole, on cells; also called Flp-In-CHO::huPDL-1; RKO cells
Procedure: (§6) 5×10⁴ cells per well were incubated for 1 h in ice-cold PBS containing 5% fetal calf serum (PBS-FCS). A dilution series of the fusion proteins and control antibodies were added to the cells and incubated for 1 h on ice. Cells were washed twice with PBS and then incubated with a goat anti-hIgG Alexa647-labeled antibody for 30 min on ice. Cells were subsequently washed and analyzed using iQue Flow cytometer (Intellicyte Screener). Mean geometric fluorescent signals were plotted and fitted with Graphpad software using nonlinear regression (shared bottom, SLOPE=1).
For flow cytometric analysis, RKO cells were incubated with fusion proteins and detected using a fluorescently labeled anti-human IgG antibody as described in Example 6.

[7] = target: T6, cynomolgus CD137 expressed on cells (cynomolgus, UniProt A9YYE7 24-254); test: flow cytometry, Flp-In-CHO::cynoCD137 cells
T6 construct: also called Flp-In-CHO::cynoCD137
Procedure: (§7) The geometric means of the fluorescence intensity were used to calculate EC₅₀ values using nonlinear regression (shared bottom, SLOPE=1).
as §6

[8] = target: T2, huCD137-His (human CD137 with a …); test: dual-binding ELISA, huCD137-His coated, binder titrated, detection with biotinylated huPD-L1-His
[9] = target: T5, human PD-L1 expressed on cells; test: flow cytometry, Flp-In-CHO::huPDL-1 cells
Procedure: as §7, §6

[10] = target: cyCD137-Fc (cynomolgus CD137 C-terminally fused to Fc) (cynomolgus); test: ELISA, cyCD137-Fc coated, detection anti-NGAL-HRP
Procedure: as §1, §2

[11] = target: T7, cynomolgus PD-L1 expressed on cells (cynomolgus); test: flow cytometry, Flp-In-CHO::cynoPDL-1 cells
T7 construct: whole, on cells; also called Flp-In-CHO::cynoPDL-1
Procedure: as §7, §6

[12] = target: T8, human CD137 expressed on cells (human, UniProt Q07011 24-255); test: flow cytometry, Flp-In-CHO::huCD137 cells
T8 construct: whole, on cells; also called Flp-In-CHO::huCD137; NFκB-luc2/CD137 Jurkat cells
Procedure: as §7, §6

[13] = target: T1, huPD-L1-His (human PD-L1 with a …); test: SPR (Biacore), binder captured by anti-human IgG Fc, huPD-L1-His in solution, 25 C, 1:1 model
Procedure: as §3, §4, §5

[14] = target: T9, huPD-L1-Fc (recombinant human PD-L1 Fc fusion) (human, UniProt Q9NZQ7 19-239); test: competitive ELISA, huPD-1-His coated, 15 nM huPD-L1-Fc tracer, binder titrated
T9 construct: Bought; also called tracer huPD-L1-Fc
Procedure: Recombinant huPD-1-His (Acrobiosystems) in PBS (1 μg/mL) was coated overnight on microtiter plates at 4° C. The plates were washed five times after each incubation step with 100 μL PBS-0.05% T (PBS supplemented with 0.05% (v/v) Tween 20). The plates were blocked with 2% BSA (w/v) in PBS-0.1% T (PBS supplemented with 0.1% (v/v) Tween 20) for 1 h at room temperature and subsequently washed again. […] The mixtures of fusion proteins and the tracer were added to the plates and incubated for 20 min at room temperature following by five washing steps with 100 μL PBS-0.05% T. Subsequently, a 1:5000 dilution of goat-anti human IgG-Fc HRP (Jackson) was added to the wells and incubated for 1 h. After an additional wash step, fluorogenic HRP substrate (QuantaBlu, Thermo) was added to each well, and the fluorescence intensity was detected using a fluorescence microplate reader.

[15] = target: T1, huPD-L1-His (human PD-L1 with a …); test: ELISA, huPD-L1-His coated, detection anti-human IgG Fc-HRP
Procedure: as §1

[16] = target: T1, huPD-L1-His (human PD-L1 with a …); test: dual-binding ELISA, huPD-L1-His coated, binder titrated, detection with biotinylated huCD137-His
Procedure: Recombinant huPD-L1-His (R&D Systems) in PBS (1 μg/mL) was coated overnight on microtiter plates at 4° C. The plates were washed five times after each incubation step with 100 μL PBS-0.05% T. The plates were blocked with 2% BSA (w/v) in PBS-0.1% T for 1 h at room temperature and subsequently washed again. Different concentrations of tested fusion proteins were added to the wells and incubated for 1 h at room temperature, followed by a wash step. […] After washing, a 1:5000 dilution of ExtrAvidin-HRP (Sigma-Aldrich) in PBS-0.1% T-2% BSA was added to the wells and incubated for 1 h. After an additional wash step, fluorogenic HRP substrate (QuantaBlu, Thermo) was added to each well, and the fluorescence intensity was detected using a fluorescence microplate reader.

Row | Binder | binding result [1] | EC50 [2] | IC50 [3] | Kd [4] | koff [4] | kon [4] | EC50 [5] | EC50 [6] | EC50 [7] | EC50 [8] | EC50 [9] | EC50 [10] | EC50 [11] | EC50 [12] | Kd [13] | koff [13] | kon [13] | IC50 [14] | EC50 [15] | EC50 [16]
1 | CD137-specific lipocalin mutein SEQ ID NO: 42 (designed binder, Mutein of mature human NGAL) QDSTSDLIPAPPLSKVPLQQNFQDNQFHGKWYVVGQAGNIRLREDKDPIKMMATIYELKEDKSYDVTMVKFDDKKCMYDIWTFVPGSQPGEFTLGKIKSFPGHTSSLVRVVSTNYNQHAMVFFKFVFQNREEFYITLYGRTKELTSELKENFIRFSKSLGLPENHIVFPVPIDQCIDG | no binding (tested: 100 nM) | 0.27 nM | 2.6 nM | – | – | – | – | – | – | – | – | – | – | – | – | – | – | – | – | –
2 | fusion protein SEQ ID NOs: 90 and 91 (bispecific antibody, human IgG4 S228P, kappa, F234A L235A, Antibody-lipocalin mutein fusion, IgG4 S228P backbone) heavy: not shown light: EIVLTQSPDTLSVTPKEKVTLTCRASQSIGTNIHWFQQKPGQSPKLLIKYASESISGVPSRFSGSGSGTDFTLTINSVEAEDAATYYCQQSNSWPYTFGQGTKLEIKRTVAAPSVFIFPPSDEQLKSGTASVVCLLNNFYPREAKVQWKVDNALQSGNSQESVTEQDSKDSTYSLSSTLTLSKADYEKHKVYACEVTHQGLSSPVTKSFNRGECGGGGSGGGGSGGGGSQDSTSDLIPAPPLSKVPLQQNFQDNQFHGKWYVVGQAGNIRLREDKDPIKMMATIYELKEDKSYDVTMVKFDDKKCMYDIWTFVPGSQPGEFTLGKIKSFPGHTSSLVRVVSTNYNQHAMVFFKFVFQNREEFYITLYGRTKELTSELKENFIRFSKSLGLPENHIVFPVPIDQCIDG | – | 0.14 nM | – | 5.73 nM | 0.000224 s⁻¹ | 39100 M⁻¹ s⁻¹ | 0.17 nM | 0.53 nM | 3.66 nM | 2.3 nM | 4.09 nM | 0.21 nM | 3.37 nM | 4.69 nM | 0.537 nM | 0.000861 s⁻¹ | 1.6e+06 M⁻¹ s⁻¹ | 2.8 nM | 0.2 nM | 0.49 nM

From patent US20210363257A1 (Pieris, published 2021)
